Laboratory results taken from patent CN116510007A.

Target: 人IL-11Rα (全长基因, stably expressed on STAT3-luc HEK293 cells) (human) (UniProt Q14626)
Assay: cell-based or functional assay

Chain of UniProt Q14626 (Q14626 23-422): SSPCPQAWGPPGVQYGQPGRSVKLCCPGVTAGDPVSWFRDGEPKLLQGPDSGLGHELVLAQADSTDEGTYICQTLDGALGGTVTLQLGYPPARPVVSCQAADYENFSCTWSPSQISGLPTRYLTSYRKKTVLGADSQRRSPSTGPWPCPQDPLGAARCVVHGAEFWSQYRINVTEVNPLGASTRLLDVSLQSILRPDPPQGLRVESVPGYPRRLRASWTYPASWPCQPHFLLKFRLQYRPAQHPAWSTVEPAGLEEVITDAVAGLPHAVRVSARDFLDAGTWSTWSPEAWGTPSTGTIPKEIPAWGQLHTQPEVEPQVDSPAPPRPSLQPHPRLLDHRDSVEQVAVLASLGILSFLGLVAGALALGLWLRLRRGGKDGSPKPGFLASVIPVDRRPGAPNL

- IL-11刺激STAT3报告基因转录表达的EC50: 0.11 ng/mL
Substance: IL-11 (ligand)
